From paper PMC6987454
Where “and” joins values, the source holds several entries; their conditions need not be identical. Equal values may be shown once.

Legend:
[1] = target: AtCGE1 (Arabidopsis chloroplast GrpE homologue 1), mature region, 6xHis-tagged (Arabidopsis); experiment: cross-linking; 5 uM purified protein in common buffer [25 mM Hepes-KOH (pH 7.8), 5 mM MgCl2, 5 mM DTT] crosslinked with glutaraldehyde at 0.05, 0.1 and 0.2% for 10 min; 4-12% SDS-PAGE and CBR staining
[2] = target: AtCGE1 (Arabidopsis chloroplast GrpE homologue 1), mature region, 6xHis-tagged (Arabidopsis); experiment: pull-down; AtCGE1-6xHis and tag-free AtCGE2 co-expressed in E. coli BL21(DE3); crude protein extract bound to Talon beads, stringent wash, elution; bands seen on PAGE
[3] = target: AtCGE2 (Arabidopsis chloroplast GrpE homologue 2), mature region, 6xHis-tagged (Arabidopsis); experiment: cross-linking; 5 uM purified protein in common buffer [25 mM Hepes-KOH (pH 7.8), 5 mM MgCl2, 5 mM DTT] crosslinked with glutaraldehyde at 0.05, 0.1 and 0.2% for 10 min; 4-12% SDS-PAGE and CBR staining

Sequence of AtCGE1 (Arabidopsis chloroplast GrpE homologue 1), mature region, 6xHis-tagged (Arabidopsis) (main, as listed by the source): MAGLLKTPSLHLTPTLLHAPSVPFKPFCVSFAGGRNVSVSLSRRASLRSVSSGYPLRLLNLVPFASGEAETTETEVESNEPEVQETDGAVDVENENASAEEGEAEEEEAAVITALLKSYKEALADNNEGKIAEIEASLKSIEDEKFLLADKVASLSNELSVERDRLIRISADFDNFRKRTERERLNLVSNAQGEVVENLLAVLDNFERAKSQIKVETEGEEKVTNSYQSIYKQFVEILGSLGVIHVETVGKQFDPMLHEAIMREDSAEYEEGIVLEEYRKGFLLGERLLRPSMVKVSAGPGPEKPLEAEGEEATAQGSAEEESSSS

“AtCGE1 (Arabidopsis chloroplast GrpE homologue 1), mature region, 6xHis-tagged (natural protein)” was tested, and the stoichiometry N [1] was 2 and 4.

In the case of “AtCGE2 (Arabidopsis chloroplast GrpE homologue 2), mature region, tag-free, co-expressed with AtCGE1-6xHis (natural protein)”, the stoichiometry N [2] is reported as 1 molar ratio.

With “AtCGE2 (Arabidopsis chloroplast GrpE homologue 2), mature region, 6xHis-tagged (natural protein)” the stoichiometry N [3] was 2 and 4.
